Assay results taken from patent US9909188B2, “Methods and compositions involving lincRNA and leukemia” (THE REGENTS OF THE UNIVERSITY OF CALIFORNIA, priority 2013, dated 2018).

Legend:
BALIR-2 [1] = test: Effect of prednisolone on BALIR-2 expression in human B-ALL cell lines (RT-qPCR); assay type: cell-based
Procedure: (§1) To measure proliferation, cells were cultured for 3-5 days before plating. Reagents were added according to the manufacturer's instructions (Promega CellTiter 96 AQueous Non-Radioactive Cell Proliferation Assay kit) and cells were incubated at 37°, 5% CO2 for 4 hours before absorbance was measured at 490 nm. To measure apoptosis, cells were plated and treated with 100 ng/mL doxorubicin or 250 μg/mL prednisolone in DMSO and incubated at 37° C. and 5% CO2. An untreated group and DMSO-treated group were included as controls. Cells were harvested after 24 hours and lysed with buffer supplied by Biovision. Protein concentrations were normalized after measurement by Bradford assay. Reagents were added according to the manufacturer's instructions (Biovision Caspase-3 Colorimetric Assay kit) and absorbance was measured at 405 nm. To observe the effects of prednisolone on lincRNA expression, untransduced cell lines were plated and treated with either 250 μg/mL prednisolone in DMSO or DMSO alone as a control. Cells were incubated at 37° C. and 5% CO2 for 24 hrs. Cells were collected and RNA was extracted using Trizol reagent (Invitrogen).
(§2) RNA collected from samples was reverse transcribed using qScript reagent (Quanta Biosciences). Real Time quantitative PCR was performed with the StepOnePlus Real-Time PCR System (Applied Biosystems) using PerfeCTa SYBR Green FastMix reagent (Quanta Biosciences).

Balir-2 [2] = test: Balir-2 expression in 70Z/3 mouse cell line (RT-qPCR, normalized to L32); assay type: cell-based; conditions: 70Z/3 cells, 6 hrs
Procedure: as §2
(§3) RACE was performed and two products were identified at this locus (FIG. 16E). We generated miRNA-formatted siRNAs (Rao, et al., 2010) against the mapped murine transcript and confirmed decreased expression in the murine pre-B cell line 70Z/3 (FIG. 14B). […] Similar to what we observed in human cell lines, Balir-2 knockdown led to an upregulation of Jun and Fos in all three of the cell lines with upregulation of Bim in two out of three cell lines (FIG. 14D-F). We further confirmed the upregulation of these proteins by western blot analysis (FIG. 14G). […] We also examined the effects of BALIR-2 expression in a second human B-ALL cell line, Reh (FIG. 18K-R), utilizing a novel method to target the transcript. Based on the method of Ulitsky et al, we generated a siRNA-like sequence within our miRNA formatted vector, targeting the splice junction of the BALIR-2 transcript (Ulitsky, et al., 2011).

[3] = test system: glucocorticoid receptor signaling pathway; test: Expression of glucocorticoid response genes in RS4;11 cells (microarray, RT-qPCR); assay type: cell-based, human
Procedure: as §2
Several of these clusters consist of genes involved in the glucocorticoid receptor signaling pathway, confirmed by functional annotation results (2-4 fold increases in FOS, HSPA6, SGK1, IL8, JUN, SERPINE1, CDKN1A and ICAM1 in siRNA group, both with and without prednisone treatment; FIGS. 13B and 13C). We confirmed knockdown of BALIR-2 and upregulation of FOS, JUN, SGK1 and SERPINE1 (FIG. 13D-F and FIG. 18E-F) by RT-qPCR. […] We also observed upregulation of the pro-apoptotic protein BIM in both knockdown and prednisolone-treated cells, which is a downstream target of JUN and an important mediator of glucocorticoid-induced apoptosis of lymphocytic cells (Heidari, et al, 2012) (FIGS. 13G and 13K).

70Z/3 cells = test: Apoptosis in 70Z/3 cells (caspase-3 activity); assay type: cell-based, mouse
[4] = test system: glucocorticoid response genes Fos, Jun and Bim; test: Expression of glucocorticoid response genes Fos, Jun and Bim in 70Z/3 cells (RT-qPCR, Western blot); assay type: cell-based, mouse
Procedure: as §2, §3

RS411 cell line [5] = test: Apoptosis, caspase-3 activity, RS411; assay type: cell-based, human; conditions: for apoptosis measured by caspase-3 activity: RS411 stably transduced
Procedure: as §1, with “To measure apoptosis, cells were plated and treated with 100 ng/mL doxorubicin or 250 μg/mL prednisolone in DMSO and incubated at 37° C. and 5% CO2.” left out

BALIR-2 [6] = test: siRNA-mediated knockdown of BALIR-2 in human B-ALL cell lines (RT-qPCR, normalized to Actin); assay type: cell-based
Procedure: We designed two complementary “linker” strands containing restriction sites for BamHI (5′ intact), XhoI, XbaI, NheI, ApaI and BamHI (3′ mutated) as follows: 5′-[…]-3′ (forward) (SEQ ID NO. 11), 5′-[…]-3′ (reverse) (SEQ ID NO. 12). The oligonucleotides were ordered through Invitrogen and modified with 5′-phosphate groups. The complementary strands were annealed by heating to 100° C. and slowly cooling in a water bath. The pHAGE2-CMV-ZsGreen-W vector (previously described in (O'Connell, 2010)) was digested with BamHI (Fermentas) and the linker was ligated in using T4 DNA ligase (Fermentas). Colonies were sequenced (Laragen) to determine the correct orientation and verify the sequence of the insert and mutation of the 3′ BamHI site. miRNA-formatted siRNAs were cloned into BamHI and ApaI or XhoI in the P2CZL vector, using the strategy that we have previously described to generate knockdown vectors against protein coding genes (O'Connell, 2009; Rao, 2010).
All lentiviruses were produced by transfecting 293T adherent cells with knock-down vectors as listed in Table 1, using BioT transfection agent (Bioland Scientific). 2.5×10^5 293T cells were co-transfected in trans using an advanced generation lentiviral system in 6 well plates for 48 hours as described previously (O'Connell, 2010). At 48 hours, the viral supernatant was collected, filtered and used for spin infection of B-ALL cell lines. 5.0×10^5 cells were spin-infected at 30° C. for 90 minutes in the presence polybrene (4 μg/mL). Transduced cells were sorted for high ZsGreen expression as described above.
as §2

RS411 cell line [7] = test: Cell proliferation, MTS assay, RS411; assay type: cell-based, human; conditions: RS411 stably transduced with siRNA
Procedure: as §1

[8] = RS411 cell line, stably transduced

For `C[C@]12C=CC(=O)C=C1CC[C@@H]1[C@@H]2[C@@H](O)C[C@@]2(C)[C@H]1CC[C@]2(O)C(=O)CO` [prednisolone], the “BALIR-2 expression after prednisolone treatment” value (BALIR-2 [1]; RS4;11 cells) was “repressed”, the “decrease in expression of BALIR-2 following treatment” value (BALIR-2 [1]; RS411 and NALM6 cell lines treated with prednisolone) was 30-50% and the “Balir-2 expression upon prednisolone treatment” value (Balir-2 [2]) was “decreased”. The “expression of FOS and JUN after prednisolone treatment” value ([3]; RS4;11 cells) was “increased expression”, the “expression of pro-apoptotic protein BIM” value ([3]; RS4;11 cells) was “upregulation” and the “apoptosis after prednisolone treatment” value (70Z/3 cells) was “increased apoptosis”. For the same molecule, the “expression of Jun, Fos and Bim after prednisolone treatment” value [4] was “upregulation” and the “apoptosis after prednisolone treatment” value (RS411 cell line [5]; RS4;11 cells) was “induction of apoptosis”.

B1: human-miR155-formatted siRNA2: human-miR155-formatted siRNA2 against BALIR-2; SEQ ID NO:34/44, printed as siRNA1-human155f (nucleic acid)
chain 1: GTAGGCTGTATGCTGTTTACTGAAATCTCCTAGGTGGTTTTGGCCACTGACTGACCACCTAGGATTTCAGTAAATGTATGATGCCTG
chain 2: TTTACTGAAATCTCCTAGGTG
modifications: expressed or natural sequence
B1 was tested, and the “knockdown of BALIR-2” value (BALIR-2 [6]; [8]) was “do not knock down”.

B2: siRNA1: miR-155 formatted siRNA oligo against BALIR-2; SEQ ID NO:29, targeting sequence SEQ ID NO:39 (nucleic acid)
chain: GAAGGCTGTATGCTGAGATTAGGTTGGCATGATTCTGTTTTGGCCACTGACTGACAGAATCATCAACCTAATCTCAGGACACAAGGCCTG
modifications: expressed or natural sequence
In the case of B2, the “knockdown of BALIR-2” value (BALIR-2 [6]; NALM6 cell line) is reported as “do not knock down” and the “cell proliferation (MTS assay)” value (RS411 cell line [7]) is reported as “reduced”.

B3: human-miR155-formatted siRNA1: human-miR155-formatted siRNA1 against BALIR-2; SEQ ID NO:33/43 (nucleic acid)
chain 1: GTAGGCTGTATGCTGAGATTAGGTTGGCATGATTCTGTTTTGGCCACTGACTGACAGAATCATCAACCTAATCTTGTATGATGCCTG
chain 2: AGATTAGGTTGGCATGATTCT
modifications: expressed or natural sequence
In the case of B3, the “knockdown of BALIR-2” value (BALIR-2 [6]; [8]) is reported as “do not knock down”.

B4: siRNA4: miR-155 formatted siRNA oligo against BALIR-2; SEQ ID NO:32/42 (nucleic acid)
chain 1: GTAGGCTGTATGCTGTTTCACGGTGTGGCAGCTTTCGTTTTGCCTCCAACTGAGAAAGCTGACACCGTGAAATGTATGATGCCTG
chain 2: TTTCACGGTGTGGCAGCTTTC
modifications: expressed or natural sequence
With B4 the “knockdown of BALIR-2” value (BALIR-2 [6]; [8]) was “do not knock down”.

B5: siRNA2: miR-155 formatted siRNA oligo against BALIR-2; SEQ ID NO:30, targeting sequence SEQ ID NO:40 (nucleic acid)
chain: GAAGGCTGTATGCTGTTTACTGAAATCTCCTAGGTGGTTTTGGCCACTGACTGACCACCTAGGATTTCAGTAAACAGGACACAAGGCCTG
modifications: expressed or natural sequence
In the case of B5, the “knockdown of BALIR-2” value (BALIR-2 [6]; NALM6 cell line) is reported as “do not knock down”, the “knockdown of BALIR-2” value (BALIR-2 [6]; [8]) is reported as “greatest degree of knockdown” and the “increases in FOS, HSPA6, SGK1, IL8, JUN, SERPINE1, CDKN1A and ICAM1 in siRNA group” value ([3]; RS4;11, microarray, both with and without prednisone treatment) is reported as 2-4 fold. For the same molecule, the “expression of FOS, JUN, SGK1 and SERPINE1 by RT-qPCR after knockdown” value ([3]; RS4;11 cells) was “upregulation”, the “expression of pro-apoptotic protein BIM” value ([3]; RS4;11 cells) was “upregulation” and the “apoptosis measured by caspase-3 activity” value (RS411 cell line [5]; DMSO) was “Increased apoptosis”. For the same molecule, the “apoptosis measured by caspase-3 activity” value (RS411 cell line [5]; no treatment) was “Increased apoptosis”.

B6: siRNA3: miR-155 formatted siRNA oligo against BALIR-2; SEQ ID NO:31/41 (nucleic acid)
chain 1: GTAGGCTGTATGCTGTAAGGTAAGTGGCAGGCATTTGTTTTGGCCACTGACTGACAAATGCCTCACTTACCTTATGTATGATGCCTG
chain 2: TAAGGTAAGTGGCAGGCATTT
modifications: expressed or natural sequence
For B6, the “knockdown of BALIR-2” value (BALIR-2 [6]; [8]) was “do not knock down”.
